From PMC4585561

Target: VSD from KvAP (residues -12 to 136)
Test: ITC; 350 uM VSTx1 titrated into 36 uM VSD in the cell, 25 °C, 10 mM PIPES-NaOH pH 6.5, 4 mM DM; single-site model

“VSTx1 (from UniProt P60980 30-63) (peptide)” showed a Kd of 1500 nM, a dH of -4.5 kcal/mol and a stoichiometry N of 0.97.
